From US20100016234A1, “SIGNAL PEPTIDES, NUCLEIC ACID MOLECULES AND METHODS FOR TREATMENT OF CARIES” (The Governing Council of the University of Toronto, published 2010)

T1: S. mutans ComD protein (histidine kinase) (Streptococcus mutans)
T1 chain: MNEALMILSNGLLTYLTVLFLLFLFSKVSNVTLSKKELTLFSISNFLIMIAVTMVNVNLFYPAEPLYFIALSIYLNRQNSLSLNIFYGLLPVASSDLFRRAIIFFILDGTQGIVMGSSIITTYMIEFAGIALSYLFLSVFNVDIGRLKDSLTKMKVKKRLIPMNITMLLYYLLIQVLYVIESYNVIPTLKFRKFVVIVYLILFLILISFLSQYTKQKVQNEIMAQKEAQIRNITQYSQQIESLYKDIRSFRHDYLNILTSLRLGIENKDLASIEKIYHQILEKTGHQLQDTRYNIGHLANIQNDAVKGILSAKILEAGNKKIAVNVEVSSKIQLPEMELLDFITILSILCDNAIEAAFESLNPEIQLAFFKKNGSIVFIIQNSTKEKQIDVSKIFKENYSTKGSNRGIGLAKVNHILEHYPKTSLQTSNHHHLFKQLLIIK


Key:
[1] = biological target: T1, S. mutans ComD protein (histidine …); assay: cell-based or functional assay
[2] = biological target: T1, S. mutans ComD protein (histidine …); assay: cell-based or functional assay

Row | Binder | Transformation efficiency (vs no CSP), S. mutans wild-type UA159, 5 µg/ml peptide [1] | Biofilm formation (SDM-glucose), S. mutans UA159, 5 µg/ml peptide [2]
1 | SGSLSTFFRLFNRSFTQLGK [Peptide analog H1] | 18 fold decrease (vs no CSP) | –
2 | SGTLSTFFRLFNRSFTQA [Peptide analog B3 (JH1005 CSP sequence)] | 195 fold increase (vs no CSP) | 34.4 % biomass (reduction)
3 | SGSLSTFFRLFNASFTQALGK [Peptide analog E2] | 252 fold increase (vs no CSP) | 38.9 % biomass (reduction)
4 | SGSLSTFFRLFNRSFTQALGK [S. mutans competence signal peptide (CSP), mature wild-type CSP sequence] | 1550 fold increase (vs no CSP) | –
5 | SGSLTFFRLFNRSFTQALGK [Peptide analog E1] | 791 fold increase (vs no CSP) | –
6 | SGSLSTFFVLFNRSFTQALGK [Peptide analog B2] | 4 fold increase (vs no CSP) | –
7 | SGSLSTFFRLFNRSFTALGK [Peptide analog A2] | 125 fold increase (vs no CSP) | –
8 | SGSLSTFFRLFNRSFTQALGA [Peptide analog G2] | 56 fold increase (vs no CSP) | 35.6 % biomass (reduction)
9 | SGSLSTFFRLFNVSFTQALGK [Peptide analog D2] | 99 fold increase (vs no CSP) | –
10 | SGSSTFFRLFNRSFTQALGK [Peptide analog D1] | 275 fold increase (vs no CSP) | –
11 | SGSLSTFFRLFNRSFTQALGV [Peptide analog F2] | 543 fold increase (vs no CSP) | 38.7 % biomass (reduction)
12 | SGSLSTFFALFNRSFTQALGK [Peptide analog C2] | 32 fold increase (vs no CSP) | –
13 | SGSLSTFFRLFNRSFTQALK [Peptide analog F1] | 541 fold increase (vs no CSP) | 36.7 % biomass (reduction)
14 | SGSLSTFFRLFNRSFTQAGK [Peptide analog G1] | 848 fold increase (vs no CSP) | 24.4 % biomass (reduction)
